The source of these data is patent publication US20240025955.

For this data set, the system named is MMP3 resistant rAgrin (SEQ ID NO: 19).

Consider MMP3, for which the MMP3 degradation entry is “is resistant to MMP3 degradation” and the “degradation of Agrin in the presence of increasing amounts of MMP3 for 24 hours” value is listed as “mutation of the MMP-3 cleavage site reduces degradation of Agrin (polypeptide defined by SEQ ID NO: 19)”.
